Data taken from article PMC8347636.

Assays:
[1] = immunofluorescence, nuclear localisation, all cell lines; details: glycan lost; control: wild type ER-tag CD24
[2] = immunofluorescence, % cells with plasma membrane CD24, MCF-7; details: glycan lost; control: wild type ER-tag CD24
[3] = immunofluorescence, % cells with plasma membrane CD24, Hs578T; details: glycan lost; control: wild type ER-tag CD24
[4] = immunofluorescence, % cells with plasma membrane CD24, HEK293T; details: glycan lost; control: wild type ER-tag CD24
[5] = immunofluorescence, % cells with plasma membrane CD24, MDA-MB-231; details: glycan lost; control: wild type ER-tag CD24
[6] = confocal immunofluorescence, % cells with plasma membrane CD24, MDA-MB-231; details: glycan changed form; control: untreated cells, same construct
[7] = confocal immunofluorescence, plasma membrane vs cytoplasm, MCF-7; details: glycan changed form; control: untreated cells, same construct
[8] = confocal immunofluorescence, plasma membrane vs cytoplasm, HEK293T; details: glycan changed form; control: untreated cells, same construct
[9] = confocal immunofluorescence, % cells with plasma membrane CD24, Hs578T; details: glycan changed form; control: untreated cells, same construct

B1: CD24: N36Q (protein)
parent chain: MGRAMVARLGLGLLLLALLLPTQIYSSETTTGTSSNSSQSTSNSGLAPNPTNATTKAAGGALQSTASLFVVSLSLLHLYS
[1]
  localisation_or_trafficking: no change
[2]
  localisation_or_trafficking: no change
[3]
  localisation_or_trafficking: decreases
[4]
  localisation_or_trafficking: decreases
[5]
  localisation_or_trafficking: no change

B2: CD24: kifunensine, WT-CD24 (protein)
parent chain: B1 parent chain
[6]
  localisation_or_trafficking: decreases

B3: CD24: kifunensine, wild type CD24 (protein)
parent chain: B1 parent chain
[7]
  localisation_or_trafficking: no change
[8]
  localisation_or_trafficking: decreases
[9]
  localisation_or_trafficking, other: % decrease in cells with membrane CD24: decreases

B4: CD24: N36,52Q (protein)
parent chain: B1 parent chain
[1]
  localisation_or_trafficking: no change
[2]
  localisation_or_trafficking: no change
[3]
  localisation_or_trafficking: decreases
[4]
  localisation_or_trafficking: decreases
[5]
  localisation_or_trafficking: decreases

B5: CD24: N52Q (protein)
parent chain: B1 parent chain
[1]
  localisation_or_trafficking: no change
[2]
  localisation_or_trafficking: no change
[3]
  localisation_or_trafficking: decreases
[4]
  localisation_or_trafficking: decreases
[5]
  localisation_or_trafficking: decreases
